Reference: PMC3734830 (Cell Death & Disease, 2013)

Molecular target: cytochrome c (human (endogenous in SK-N-BE), UniProt P99999 1-105)
Experiment: co-IP

Chain of cytochrome c (P99999 whole entry): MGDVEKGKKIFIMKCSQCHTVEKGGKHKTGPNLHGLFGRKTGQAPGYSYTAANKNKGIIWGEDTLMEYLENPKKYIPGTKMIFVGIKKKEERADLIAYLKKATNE

B1: Neuroglobin (natural protein, human (endogenous in SK-N-BE), UniProt Q9NPG2 1-151, looked up)
chain: MERPEPELIRQSWRAVSRSPLEHGTVLFARLFALEPDLLPLFQYNCRQFSSPEDCLSSPEFLDHIRKVMLVIDAAVTNVEDLSSLEEYLASLGRKHRAVGVKLSSFSTVGESLLYMLEKCLGPAFTPATRAAWSQLYGAVVQAMSRGWDGE
- fold NGB–cytochrome c association in mitochondria after E2: ~3.3 fold
